Experimental data published in patent US6887468B1 (Board of Regents, The University of Texas System, priority 1999, dated 2005).

Experiments:
[1] = GUS enzymatic activity (cleavage of substrate); type: biochemical
Excerpt: The 6-His GUS was pure based upon SDS-PAGE, where it ran as a single band of 75 kDa band. On gel filtration columns, the 6-His GUS runs as a tetramer of about 300 kDa.
The biological activity of each component of the 2C3-GUS conjugate was confirmed.

[2] = tested on: Bend3 mouse endothelial cells; ABAE, bovine aortic endothelial cells; HUVEC, human umbilical vein endothelial cells; assay: Direct binding of biotinylated 6-His endostatin to endothelial cells in vitro; type: cell-based; conditions: three endothelial cell types
Excerpt: Binding was detected using streptavidin-peroxidase in conjunction with O-phenylenediamine (OPD) and the absorbance read at 490 nm.

Row | Molecule | Enzymatic activity of GUS [1] | Binding to endothelial cells in vitro [2]
1 | 6-His GUS: E. coli β-glucuronidase with N-terminal 6×histidine tag (protein, UniProt P05804 1-603, looked up, His6 tag) Beta-glucuronidase: MLRPVETPTREIKKLDGLWAFSLDRENCGIDQRWWESALQESRAIAVPGSFNDQFADADIRNYAGNVWYQREVFIPKGWAGQRIVLRFDAVTHYGKVWVNNQEVMEHQGGYTPFEADVTPYVIAGKSVRITVCVNNELNWQTIPPGMVITDENGKKKQSYFHDFFNYAGIHRSVMLYTTPNTWVDDITVVTHVAQDCNHASVDWQVVANGDVSVELRDADQQVVATGQGTSGTLQVVNPHLWQPGEGYLYELCVTAKSQTECDIYPLRVGIRSVAVKGEQFLINHKPFYFTGFGRHEDADLRGKGFDNVLMVHDHALMDWIGANSYRTSHYPYAEEMLDWADEHGIVVIDETAAVGFNLSLGIGFEAGNKPKELYSEEAVNGETQQAHLQAIKELIARDKNHPSVVMWSIANEPDTRPQGAREYFAPLAEATRKLDPTRPITCVNVMFCDAHTDTISDLFDVLCLNRYYGWYVQSGDLETAEKVLEKELLAWQEKLHQPIIITEYGVDTLAGLHSMYTDMWSEEYQCAWLDMYHRVFDRVSAVVGEQVWNFADFATSQGILRVGGNKKGIFTRDRKPKSAAFLLQKRWTGMNFGEKPQQGGKQ | enzymatically active | 
2 | (Biotinylated 6-His) endostatin: mouse endostatin with N-terminal 6×histidine tag expressed in E. coli, biotinylated (protein, UniProt P39060 1572-1754, looked up, Endostatin biotin label, His6 tag) Endostatin: HSHRDFQPVLHLVALNSPLSGGMRGIRGADFQCFQQARAVGLAGTFRAFLSSRLQDLYSIVRRADRAAVPIVNLKDELLFPSWEALFSGSEGPLKPGARIFSFDGKDVLRHPTWPQKSVWHGSDPNGRRLTESYCETWRTEAPSATGQASSLLGGRLLGQSAASCHHAYIVLCIENSFMTASK |  | bound in a saturable fashion
